Results published in article doi:10.1101/2019.12.19.882696.

Biological target: Cys-OmpX labelled with Alexa Fluor 488 (E. coli) (UniProt P0A917)
Assay: MST

Kd: 800 nM
Substance: E. coli SurA wild type (mature, tag cleaved) (from UniProt P0ABZ6 21-428) (natural protein)
